# Source: patent US20250188151A1, “C-JUN ANTAGONIST PEPTIDES” (The University of Bath, priority 2022, published 2025)
# T1: cJun bZIP (human, UniProt P05412 252-308, limits assumed)
# T1 construct: Purified from a His-SUMO fusion with the tag cleaved off; also called c-Jun bZIP domain; 60 amino acid c-Jun bZIP construct
# T1 chain: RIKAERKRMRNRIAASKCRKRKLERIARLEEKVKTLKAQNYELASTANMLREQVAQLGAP
# T2: cFos bZIP (human, UniProt P01100 137-193)
# T2 construct: Purified from a His-SUMO fusion with the tag cleaved off; also called cFos bZIP domain
# T2 chain: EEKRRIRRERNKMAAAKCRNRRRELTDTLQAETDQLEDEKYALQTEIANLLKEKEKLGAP
# B1: HingeW (peptide)
# peptide: MASLEQRAEELARENEELEKEAEELVVEEDVLEEEIEQLEERNYALRKEIEDLQKQLEKLGAPHHHHHH
# notes: Recombinant, capped (MAS at the N-terminus, GAP at the C-terminus) and C-terminally 6xHis-tagged, 69 amino acids; also called peptide 1
# How the values were obtained:
# [1] = molecular target: T1, cJun bZIP; assay: ITC (PEAQ-ITC), peptide injected into cJun, one site model; Table 7 ITC, run at a lower temperature than the earlier 1/cJun ITC measurement
# [2] = molecular target: T1, cJun bZIP
# [3] = molecular target: T1, cJun bZIP; assay: ITC, antagonist injected into cJun, one site model
# [4] = molecular target: T1, cJun bZIP; assay: cell-based or functional assay
# [5] = molecular target: T1, cJun bZIP; assay: cell-based or functional assay
# [6] = molecular target: T2, cFos bZIP; assay: CD spectra 190-260 nm, equimolar mixture compared with the average of the 10 µM component spectra
# [7] = tested on: TRE DNA; assay: CD control: peptide with TRE DNA; assay type: binding
# Protocol: Circular Dichroism (CD): An Applied Photophysics Chirascan was used for CD measurements, with a 200 μL sample in a 1 mm path length CD cell. Protein/DNA samples were suspended in 150 mM potassium phosphate, 150 mM potassium fluoride and 5 mM TCEP at pH 7.4 and were equilibrated for 30 minutes before measurement. […] These scans were averaged and converted to molar residue ellipticities (MRE).
# [8] = Serum stability (LC-MS); assay type: in vitro ADME; details: human serum, 37° C.
# Protocol: Serum Stability: Peptide stocks (600 μM) were prepared in water and 50 μL added to 950 μL human serum (Merck) before incubation at 37° C. […] The supernatant was analysed by LC-MS and quantified using the sum of the two largest charge state intensities (1: 9+, 10+; 23,24: 3+, 4+).
# [9] = molecular target: T1, cJun bZIP; assay: ITC (PEAQ-ITC), peptide injected into cJun, one site model
# [10] = molecular target: cJun bZIP (Homo sapiens, UniProt P05412, S292Y); assay: CD spectra and thermal denaturation of peptide/cJun heterodimers
# Protocol: (§1) Circular Dichroism (CD): An Applied Photophysics Chirascan was used for CD measurements, with a 200 μL sample in a 1 mm path length CD cell. Protein/DNA samples were suspended in 150 mM potassium phosphate, 150 mM potassium fluoride and 5 mM TCEP at pH 7.4 and were equilibrated for 30 minutes before measurement. […] These scans were averaged and converted to molar residue ellipticities (MRE). Thermal denaturation experiments were performed by measuring the ellipticity at 222 nm over a 1 to 90° C. gradient at 1° C. increments. Post-melt scans at 20° C. confirmed the transitions were reversible as they overlaid within 10% of the pre-melt scan.
# (§2) Circular Dichroism (CD): An Applied Photophysics Chirascan was used for CD measurements, with a 200 μL sample in a 1 mm path length CD cell. Protein/DNA samples were suspended in 150 mM potassium phosphate, 150 mM potassium fluoride and 5 mM TCEP at pH 7.4 and were equilibrated for 30minutes before measurement. […] Thermal denaturation experiments were performed by measuring the ellipticity at 222 nm over a 1 to 90° C. gradient at 1° C. increments. Post-melt scans at 20° C. confirmed the transitions were reversible as they overlaid within 10% of the pre-melt scan.
# (§3) Peptide helicity was determined by quantifying the CD signal at 222 nm of peptide only samples. Thermal denaturation experiments were then used to determine the Tm of peptide-c-Jun heterodimers, which was used as an approximate measure of target engagement. […] The same 60 amino acid c-Jun bZIP construct was used for all experiments, regardless of antagonist peptide length.
# [11] = molecular target: T3, cJun/TRE DNA interaction (Homo sapiens, UniProt P05412, S292Y); assay: CD cJun/TRE DNA antagonism (shift of TRE DNA peak at ~281 nm, Hill fit); assay type: biochemical; details: HingeW concentrations of 50 and 100 μM
# T3 construct: The same 60 amino acid c-Jun bZIP construct was used for all experiments; His-SUMO (N, cleaved yes); made in house; host or cells: E. coli
# [12] = molecular target: T1, cJun bZIP
# [13] = CD spectra and thermal denaturation of peptide-only samples (helicity, homodimer Tm); details: peptide alone
# Protocol: as §1, §2, §3
# [14] = molecular target: T1, cJun bZIP; assay: ITC
molecule,measurement,setting,value
B1,Kd,[1],0.00021 µM
same,ΔTm from component average (CD),[2],~40 ° C.
same,Kd,[3],0.0144 µM
same,TΔS (ITC),[3],-9.37 kcal/mol
same,ΔG (ITC),[3],-11 kcal/mol
same,ΔH (ITC),[3],-20.4 kcal/mol
same,IC50 CD,[4],13.4 µM
same,"IC50, EMSA of free TRE DNA band",[5],9.6 µM
same,TBS assay colony numbers relative to A-FosW,[5],10%
same,TBS assay colony numbers relative to TRE-mDHFR alone,[5],66%
same,binding result,[6],no binding (tested: 5 µM of each peptide)
same,interaction with TRE DNA,[7],no interaction
same,peak intensities relative to starting values,[8]; after 96 hours,no peaks corresponding to 1 are observed
same,degraded,[8]; at 24 hours,67%
same,half-life,[8]; exponential decay fit,18.9 h
same,-TΔS,[9],17.6 kcal/mol
same,"Stoichiometry, n",[9],0.93
same,ΔG,[9],-13.4 kcal/mol
same,ΔH,[9],-31 kcal/mol
same,increase in heterodimer Tm relative to A-FosW/cJun,[10],1.3 °C
same,Fraction helicity at 20° C. (CD),"[10]; heterodimer with c-Jun, equimolar, 10 μM total",34.7%
same,Tm (° C.) (CD),"[10]; heterodimer with cJun bZIP, Example 1, listed as HingeW",71.2 °C
same,ΔTm from component average (CD),"[10]; heterodimer with cJun vs average of component profiles, listed as HingeW",~40 °C
same,antagonism of the cJun/TRE interaction,[11],complete antagonism
same,increase in heterodimer Tm against A-FosW/cJun,[12],1.3 ° C.
same,Fraction helicity at 20° C. (CD),[13],27.2%
same,"helicity in isolation, less helical relative to A-FosW",[13],12.9%
same,fold increase in binding affinity against A-FosW,[14],6 fold
